Measurements taken from article PMC6402988 (Nature structural & molecular biology, 2019).

Tests used:
[1] = target: T1, cleaved Ebola virus glycoprotein (EBOV GPCL) (Zaire ebolavirus, Mayinga-76); experiment: BLI
T1 chain 1: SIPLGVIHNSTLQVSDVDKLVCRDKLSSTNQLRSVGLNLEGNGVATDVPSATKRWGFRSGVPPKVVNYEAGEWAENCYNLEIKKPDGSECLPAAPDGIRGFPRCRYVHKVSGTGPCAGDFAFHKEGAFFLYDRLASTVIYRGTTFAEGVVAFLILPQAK
T1 chain 2: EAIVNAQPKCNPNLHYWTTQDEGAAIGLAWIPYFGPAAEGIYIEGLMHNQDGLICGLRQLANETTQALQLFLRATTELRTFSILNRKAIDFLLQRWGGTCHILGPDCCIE

[2] = target: T1, cleaved Ebola virus glycoprotein (EBOV …); experiment: cell-based or functional assay
SUDV GP ectodomain = SUDV GP ectodomain (Sudan ebolavirus; strain not named for …, UniProt Q66814); experiment: cell-based or functional assay

B1: ADI-15946 IgG (antibody, V domains shown)
VH: EVQLVESGGGLVKPGGSLRLSCAASGFTFSNAWMSWVRQAPGKGLEWVGRIKSKTDGGTIDYAAPVKGRFTISRDDSKNTVYLQMTSLKTEDTAVYYCTTYTEDMRYFDWLLRGGETFDYWGQGTLVTVSS
VL: DIRLTQSPSSLSASVGDRVTITCRASHYISTYLNWYQQKPGKAPKLLIYAASNLQSGVPSRFSGSGFGTDFSLTISSLQPEDFATYHCQQSYSTPGRYTFGQGTKVEIK
Question: For B1, which “fold improvement in binding (KDapp) against full-length GP” value [1] is on record?
Answer: 10000 fold

Question: And the “fold increased kon against EBOV GPFL” value [1]?
Answer: 10 fold

Question: And the “fold slower koff against EBOV GPFL” value [1]?
Answer: > 1000 fold

Question: And the “neutralization potency against rVSV-EBOV GPCL compared to rVSV-EBOV GPFL” value [2]?
Answer: 100 fold

B2: 46M3 (antibody, V domains shown)
VH: EVQLVESGGGLVKPGGSLRLSCAASGFTFSNAWMSWVRQAPGKGLEWVGRIKSKTDGGTIDYAAPVKGRFTISRDDSKNTVYLQMTSLKTEDTAVYYCTTYTEDMAYFDWLLRGGETFDYWGQGTLVTVSS
VL: DIRLTQSPSSLSASVGDRVTITCRASHYISTYLNWYQQKPGKAPKLLIYAASNLQSGVPSRFSGYGYGTDFSLTISSLQPEDFATYHCQQSYSTPGRYTFGQGTKVEIK
Question: Which “fold improvement in neutralization of authentic SUDV against parental ADI-15946” value (SUDV GP ectodomain) does the source give for B2 here?
Answer: 33 fold

B3: 46M2 (antibody, V domains shown)
VH: EVQLVESGGGLVKPGGSLRLSCAASGFTFSNAWMSWVRQAPGKGLEWVGRIKSKTDGGTIDYAAPVKGRFTISRDDSKNTVYLQMTSLKTEDTAVYYCTTYTEDMAYFDWLLRGGETFDYWGQGTLVTVSS
VL: DIRLTQSPSSLSASVGDRVTITCRASHYISTYLNWYQQKPGKAPKLLIYAASNLQSGVPSRFSGYGFGTDFSLTISSLQPEDFATYHCQQSYSTPGRYTFGQGTKVEIK
Question: How did the “fold improvement in neutralization of authentic SUDV against parental ADI-15946” value (SUDV GP ectodomain) turn out when B3 was run?
Answer: 33 fold

B4: ADI-15946 LC^WT:HC^IGL (antibody, V domains shown)
VH: not shown
VL: DIRLTQSPSSLSASVGDRVTITCRASHYISTYLNWYQQKPGKAPKLLIYAASNLQSGVPSRFSGSGFGTDFSLTISSLQPEDFATYHCQQSYSTPGRYTFGQGTKVEIK
Question: Does B4 bind [1]?
Answer: binds
